# Laboratory results as given in the DeepSol protein solubility set.
# Assay: soluble on expression in E. coli; label from the status in PepcDB or PDB records
row,Sequence,soluble on expression in E. coli
1,GPGSMQRLFFRSTCARVRCADLRLKPPVSIPQVTFQTVAFSSSAAGAAVRSGAEGTNTTTKRRSGFGGGAGGGGPVKDRYPPPATDLGDPRRRLAVLVDASSVDPRVFRNTILPAALKVGTPVLIRIFSVQLSSEWEPLVAGSGGTRESATSTEPEWKTSGTANDGREEVSGAAGSRDSGAWCPPVEFFRVERFIPVPMQMEADANHIFDFRKQNQIEAVAFVCGEVDRGVFEGFLPNIAGNGFNQYVLDELGMAKEVLEDGRSEDGTPTVQK,soluble
2,GPGSMRGVYPYLFAEDMRSRGAGEPAKKEVKKNKFVATINWELFTRVERMDVVFSPRPKGVTTGNEGDIADGCETGAPAVWSFVPVGVPHGENYRANAFLVPMHDKSESPRLLLYVSDISELEDRFFTDLARSKVLLGVDPAVPIEVLVLDMLSRRPYVAHLHVEASIAAAKRINAAKTYYVGMSHRINYDEMMQELQQLGLGATMEMGYDGCVVSVGDSGLQHLSGRL,not soluble
3,GPGSMRISERAFMDIAIGTKAPRRIVFKLFPRKCPSAVKNFIELCSGNVSTDTYESGNRDKLISESALPQLTYKNSTFHRVEKGYLIQGGDIVTGRGTEQLSIYGGTFSAPEEVRASVFDKPGLVGTASSSPNAHGSQFFILTAKEANHLNGTCICFGQVADGLDVVQEIEQVPIDPSGFPSLKVSIVDCGVLE,soluble
4,GPGSMRSASAYGLDGQARSLCSLYHPSLNSQECHRFLIGTANPSADNKIHLIEYQDDTKSLECATVWSHNDPVMGLWCSPSLSADSLLAVSSLRKLVVFQISENVLNEPKCIATMNKNYSRVLWDLDGLQREFRAVHQNTLTTVFLSSSKLGSETVNYTSSGGFIRCAALAPYDPNLCLISCDSDGLQLVDLRSKKASSFATTKYSHGFGYTTAVDFDRLKPGQFLSAGTDGYVYIHDIRYNTSCSLAILRHMKAHEHAVQSCSFNSFRDELVLSCSSDQTLKLWDVEHNNEPKCLRRLADYGDSVVALCWSGNSPWVFAGLSFNGKLLVDTVPNEKKMSILLDEKKWCET,not soluble
5,GPGSMSYYCSGGHCLKYATPGREPPDPQLFPHYMQNAQNLWLHFSEWWPHGDGGSCPAPPTKGVVFIVPGLGEHTGRYDSVALRLNQEGYVVFSMDNQGTGGSEGERLYVECFTHFVDDVCAFVVFIQTRYAALKSQPTFLMGHSMGGLIATLVAQRDASGFRGVVLSGPALGLSKPVPCFMRSLAHFLSQWFPKLPVRKLDPDLVSYNTPVVQLVKQDPFYSNVTLRARFVDEMLIAQDRAAEAAGTSQFPFLIVHGEEDQLCSLETSKSFFKSALSEDKNLVSYPRAGHEVLTELCRAEVMAEVIKFIDERAR,not soluble
6,GPGSMVHRQDGAVVHCSRETGRLSAIIAPSILASDFAQLLSECQSVLSPEGGAADWLHVDVMDGHFVPNISIGMCVVQSLRSHLQDVFLDVHCMVSDPDRWVEEMAKAGATQMTFHVEAVADPKAVARHIRAAGMLCGVALKPKTPVSSVLNLVEEQLIDMVLVMTVEPGFGGQSFMQDMMPKVEELRARFPCLNIQVDGGIGPGTIDAPARAGANVIVAGTSIFRADSRKEATESMRRVVQGYLGSTTS,soluble
7,GPGSMVVKDISLADWGRKELDIAETEMPGLMAAREEFGKSQPLKGARISGSLHMTIQTAVLIETLKVLGAEVRWASCNIFSTQDHAAAAIAATGTPVFAVKGETLEEYWTYTDQIFQWPDGEPSNMILDDGGDATMYILIGARAEAGEDVLSNPQSEEEEVLFAQIKKRMAATPGFFTKQRAAIKGVTEETTTGVNRLYQLQKKGLLPFPAINVNDSVTKSKFDNKYGCKESLVDGIRRGTDVMMAGKVAVVCGYGDVGKGSAQSLAGAGARVKVTEVDPICALQAAMDGFEVVTLDDAASTADIVVTTTGNKDVITIDHMRKMKDMCIVGNIGHFDNEIQVAALRNLKWTNVKPQVDLIEFPDGKRLILLSEGRLLNLGNATGHPSFVMSASFTNQVLGQIELFTRTDAYKNEVYVLPKHLDEKVARLHLDKLGAKLTVLSEEQAAYIGVTPQGPFKSEHYRY,soluble
8,GPGSMWRITRLCCKQLIRDESLVSLPPAVHRLEVYRNAVSVDCEERICAELGLLLQREGHTAFAEGSTPQQKIVKHTYLELHGAHKDFTEVKSFQRKETRRLPGLLWSPTLVSWMNEVVPRVRVFPVGVMPDTARVVEHNMTGYEMHMEHPTVGCSFLYLSLLSDTVLTFDDEATGRYGEVFLPQRALMCCSGEIRWGWRFGEQSREVHTFVNASGVRRVVEPDLRLSVQLWKFTPQLLDARLLQDRVEESMKQREAEESNEVVETIAVDRKKNEEEHKGSASSHALFSALAEKGASGTGPLGGEYVEGRTQACKGVEGKSMTMEDIGRDYNTYKQQFQNVHGVLQEMKALQDAGQPINDMWLRKRILDGQKDDNHDAQDGFDPNDVEGTWDRVDAKARFYKARLKGMDYDGTANSNSSMPDVTEDAPLDMKKTIQKIAPLVKDGDKILASLPCGQ,not soluble
9,GPGYNEPMAASDEVNLIESRTVVPLNTWVLISNFKVAYNILRRPDGTFNRHLAEYLDRKVTANANPVDGVFSFDVLIDRRINLLSRVYRPAYADQEQPPSILDLEKPVDGDIVPVILFFHGGSFAHSSANSAIYDTLCRRLVGLCKCVVVSVNYRRAPENPYPCAYDDGWIALNWVNSRSWLKSKKDSKVHIFLAGDSSGGNIAHNVALRAGESGIDVLGNILLNPMFGGNERTESEKSLDGKYFVTVRDRDWYWKAFLPEGEDREHPACNPFSPRGKSLEGVSFPKSLVVVAGLDLIRDWQLAYAEGLKKAGQEVKLMHLEKATVGFYLLPNNNHFHNVMDEISAFVNAE,soluble
10,GPHMASAEEKLEKKLELDPNCKEPLQVLPPTVVDQIRLWQLELDRVITYEGSLYSDFETSQEYNLLSKYAQDIGVLLWKDDKKKKFFISKEGNSQVLDFAKRKLKKKQ,soluble
11,GPLGSDFPQHSQHVLEQLNQQRQLGLLCDCTFVVDGVHFKAHKAVLAACSEYFKMLFVDQKDVVHLDISNAAGLGQVLEFMYTAKLSLSPENVDDVLAVATFLQMQDIITACHALKSLA,soluble
12,GPQDPYEINLMEELTLKGVTQYYAYVTERQKVHCLNTLFSRLQINQSIIFCNSSQRVELLAKKISQLGYSCFYIHAKMRQEHRNRVFHDFRNGLCRNLVCTDLFTRGIDIQAVNVVINFDFPKLAETYLHRIGRSGRFGHLGLAINLITYDDRFNLKSIEEQLGTEIKPIPSNIDKSLYVAEYHSEPVEDEKP,soluble
13,GPVDEVSFHSVVQQLKARQQATDEQLEELQEAFAKVQERNSVFSDWLKISAMLCAATLALSQVVKMAKAVKQMVKPDLVRVQLDEQEQGPYNETARVKPKTLQLLDIQGPNPVMDFEKYVAKHVTAPIGFVYPTGVSTQTCLLVRGRTLVVNRAMAESDWTSIVVRGVTHARSTVKILAIAKAGKETDVSFIRLSSGPLFRDNTSKFVKAGDVLPTGAAPVTGIMNTDIPMMYTGTFLKAGVSVPVETGQTFNHCIHYKANTRKGWSGSALLADLGGSKKILGIHSAGSMGIAAASIVSQEMIRAVVNAFEPQ,soluble
14,GQDRSPIETQNVETVLRLFDEGWGAQDGWRDVWRETMTPGFRSIFHSNQAVEGIEQAIAFNAVLFEGFPRLEVVVENVTVEGDNVVVQARLTGAQDGPFLGVPPSGQMVDVPDVTLFTLADGQVIEMRYFTDLLAVMTAISAPPEN,soluble
15,GQHSLQYFHTAVSRPGLGEPWFISVGYVDDTQFVRFDSDAENPRMEPRARWMEQEGPEYWERETQIAKGHEQSFRGSLRTAQSYYNQSKGGSHTLQWMYGCDMGSDGRLLRGYLQFAYEGRDYIALNEDLKTWTAVDMAAQITRRKWEQAGIAEKDQAYLEGTCMQSLRRYLELGKETLLRTDPPKAHVTHHPRSYGAVTLRCWALGFYPADITLTWQLNGEELTQDMELVETRPAGDGTFQKWASVVVPLGKEQNYTCHVNHEGLPEPLTLRW,soluble
16,GQRELTLFVHGFNSTQTETAYRAAQLAHDIEMPGSLMVYSWPSKGHALGYAYDADSTVFARDGLETVLRRLGEQRIDRLAVVAHSMGSFLLMEALRQIEIATPGWSARHLDGVILISPDLDLDVFRSQMRRIKTVPQPFVVMASEKDNVLNLSRHLRGKQSSERLGQIGSAALITDLPVAVIDTSQFSDEAESGHFIAATSPTLLAMIAEARNMTDLFEAGNVPL,not soluble
17,GRRPRTAFTQNQIEVLENVFRVNCYPGIDILEDLAQKLNLELDRIQIWFQNRRAKLKRSHRESQFLM,soluble
18,GSAEEWYFGKITRRESERLLLNPENPRGTFLVRESETTKGAYCLSVSDFDNAKGLNVKHYKIRKLDSGGFYITSRTQFSSLQQLVAYYSKHADGLCHRLTNVCPTSKEFIVTD,soluble
19,GSAMAPTNDQLTDLQEAHFVVFESEENSESVMDGFVEHPFYTATLNGQKYVVMKTKDDSYWKDLIVEGKRVTTVSKDPKNNSRTLIFPYIPDKAVYNAIVKVVVANIGYEGQYHVRIINQDINTKDDDTSQ,soluble
20,GSARPKLRVVTLVEHPFVFTRESDEDGQCPAGQLCLDPGTNDSARLDALFAALVNGSVPRTLRRCCYGYCIDLLERLAEDLAFDFELYIVGDGKYGALRDGRWTGLVGDLLAGRAHMAVTSFSINSARSQVVDFTSPFFSTSLGIMVRTRGTELSGIHDPKLHHPSQGFRFGTVWESSAEAYIKASFPEMHAHMRRHSAPTTPHGVAMLTSDPPKLNAFIMDKSLLDYEVSIDADCKLLTVGKPFAIEGYGIGLPQNSPLTSNLSEFISRYKSSGFIDLLHDKWYKMVPCGK,soluble
21,GSEDINRNPLLPTKEDEKMDGVIYGAYLPNLEKSVIPIGTASESTEPVNRYQIGVNLAGDAWAGYMSPRDNKFNGSKNFTNYFMYENWVNYVYSFMVTDVYSPWMQIKRISQDEGTRNDEIYALAQIIKIAALHRTTDMFGPIPYSQVGKGSFKVAYDSQESVYRSFLKELEEAVQTLDDYSNKSKEVLPAFDIVYNGDVNKWMRFANSLMLRLAIRVRFADAGLAKEYAEKAVKHPAGLINSKELAAQMGKGAGLQMKNPLKVINEEYNDTRMGATIYSYLAGYNDARAAVYFVKNNGFKAVRCGIAKSGDAYNGFTRPNVHEDDPLYWMKASEVCFLKAEGALAGFDMGGSAGDFYNAGIRMSFSENGLDNSSAETYLKDSTRKPANYTDTSNGELSANAPSSITIRWENGATEEEKLERIITQKYLAIFPNGQEAWTEWRRTGYPRQIVVAENKTNSAVLIGNGYDLGGVRRLPYPRTEYEQNGENLHNAISQYLGGVDNAATKVWWDKKSK,soluble
22,GSHMAEDEPFSGAKKLRHLLENTDELIVCPGVYDGLSARTAMELGFKSLYMTGAGTTASRLGQPDLAIAQLHDMRDNADMIANLDPFGPPLIADMDTGYGGPIMVARTVEHYIRSGVAGAHLEDQILTKRCGHLSGKKVVSRDEYLVRIRAAVATKRRLRSDFVLIARTDALQSLGYEECIERLRAARDEGADVGLLEGFRSKEQAAAAVAALAPWPLLLNSVENGHSPLITVEEAKAMGFRIMIFSFATLAPAYAAIRETLVRLRDHGVVGTPDGITPVRLFEVCGLQDAMEVDNGAGGKAFSEGV,soluble
23,GSHMASEKVAVETSVYLSELEWKSASTGYGEIQKDASCDGNTITLKGENGEKVSYDKGIGTHAHSEIVYSLEGLDYYDYFETFVGVDQEMAGTVASISFEVYLDNEKVFDSGLMTGDTTQKHVKVPIAGKNTLKLVVKDGGDSIGSDHGSFGDAKLT,soluble
